T1: LIN7B, Q9HAP6
T1 sequence (Q9HAP6 88-185, limits assumed, looked up): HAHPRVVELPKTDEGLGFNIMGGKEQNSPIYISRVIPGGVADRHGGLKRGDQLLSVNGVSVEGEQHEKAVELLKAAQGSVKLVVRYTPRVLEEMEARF

T2: FRMPD1, Q5SYB0
T2 sequence (Q5SYB0 52-145, limits assumed, looked up): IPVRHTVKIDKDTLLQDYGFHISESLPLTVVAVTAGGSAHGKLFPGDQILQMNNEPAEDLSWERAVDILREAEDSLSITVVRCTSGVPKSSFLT

T3: PCLO, Q9Y6V0
T3 sequence (Q9Y6V0 4491-4600, limits assumed, looked up): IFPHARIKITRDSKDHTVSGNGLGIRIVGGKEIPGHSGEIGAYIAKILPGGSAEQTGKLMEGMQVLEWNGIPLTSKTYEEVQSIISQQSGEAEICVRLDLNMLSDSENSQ

T4: LIN7C, Q9NUP9
T4 sequence (Q9NUP9 88-185, limits assumed, looked up): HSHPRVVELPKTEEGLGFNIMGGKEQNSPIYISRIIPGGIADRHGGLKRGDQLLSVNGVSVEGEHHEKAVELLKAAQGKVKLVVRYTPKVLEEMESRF

T5: PTPN13_1, Q12923
T5 sequence (Q12923 1088-1188, limits assumed, looked up): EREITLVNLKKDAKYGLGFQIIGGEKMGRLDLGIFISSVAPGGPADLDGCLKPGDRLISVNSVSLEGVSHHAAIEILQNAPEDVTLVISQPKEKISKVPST

T6: GRIP1_5, Q9Y3R0
T6 sequence (Q9Y3R0 568-668, limits assumed, looked up): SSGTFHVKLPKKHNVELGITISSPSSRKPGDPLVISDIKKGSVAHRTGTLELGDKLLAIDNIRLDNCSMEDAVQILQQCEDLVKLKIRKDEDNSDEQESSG

T7: ARHGEF11, O15085
T7 sequence (O15085 42-136, limits assumed, looked up): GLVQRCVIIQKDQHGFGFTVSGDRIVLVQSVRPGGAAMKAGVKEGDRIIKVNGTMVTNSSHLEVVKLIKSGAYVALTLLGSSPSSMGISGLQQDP

T8: NHERF3_3, Q5T2W1
T8 sequence (Q5T2W1 238-333, limits assumed, looked up): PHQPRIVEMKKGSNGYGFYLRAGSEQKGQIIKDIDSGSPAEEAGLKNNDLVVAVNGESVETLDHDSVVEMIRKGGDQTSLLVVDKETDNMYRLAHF

T9: ARHGAP21, Q5T5U3
T9 sequence (Q5T5U3 45-169, limits assumed, looked up): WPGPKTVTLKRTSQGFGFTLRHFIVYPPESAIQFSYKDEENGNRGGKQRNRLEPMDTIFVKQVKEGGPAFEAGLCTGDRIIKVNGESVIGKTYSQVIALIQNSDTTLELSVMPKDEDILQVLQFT

T10: PARD3B_1, Q8TEW8
T10 sequence (Q8TEW8 196-299, limits assumed, looked up): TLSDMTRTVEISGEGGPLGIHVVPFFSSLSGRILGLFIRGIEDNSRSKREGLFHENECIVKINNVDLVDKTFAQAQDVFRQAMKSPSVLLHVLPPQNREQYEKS

T11: MPP2, Q14168
T11 sequence (Q14168 180-250, limits assumed, looked up): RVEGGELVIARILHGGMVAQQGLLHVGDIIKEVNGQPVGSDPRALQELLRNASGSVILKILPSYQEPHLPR

T12: DFNB31_3, Q9P202
T12 sequence (Q9P202 811-907, limits assumed, looked up): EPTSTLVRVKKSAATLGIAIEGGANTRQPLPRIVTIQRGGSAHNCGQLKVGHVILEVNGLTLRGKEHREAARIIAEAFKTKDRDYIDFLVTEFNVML


Key:
Experiment in all cases: holdup assay
Parameters in all cases: key: below the threshold = too weak to quantify, mostly under pKd 3.1 to 4
Settings in all cases: plain residues with an end cap or a label only (N-terminal biotin on a linker: ado-ado)
DLG4_2, P78352 = target: DLG4_2, P78352
MAGI2_4, Q86UL8 = target: MAGI2_4, Q86UL8
Inadl_10, Q8NI35 = target: Inadl_10, Q8NI35
LIN7B, Q9HAP6 = target: T1, LIN7B, Q9HAP6
LNX1_1, Q8TBB1 = target: LNX1_1, Q8TBB1
FRMPD1, Q5SYB0 = target: T2, FRMPD1, Q5SYB0
Inadl_8, Q8NI35 = target: Inadl_8, Q8NI35
PCLO, Q9Y6V0 = target: T3, PCLO, Q9Y6V0
NOS1, P29475 = target: NOS1, P29475
LIN7C, Q9NUP9 = target: T4, LIN7C, Q9NUP9
PTPN13_1, Q12923 = target: T5, PTPN13_1, Q12923
GRIP1_5, Q9Y3R0 = target: T6, GRIP1_5, Q9Y3R0
ARHGEF11, O15085 = target: T7, ARHGEF11, O15085
NHERF3_3, Q5T2W1 = target: T8, NHERF3_3, Q5T2W1
PARD3_3, Q8TEW0 = target: PARD3_3, Q8TEW0
ARHGAP21, Q5T5U3 = target: T9, ARHGAP21, Q5T5U3
PARD3B_1, Q8TEW8 = target: T10, PARD3B_1, Q8TEW8
MPP2, Q14168 = target: T11, MPP2, Q14168
GRID2IP_2, A4D2P6 = target: GRID2IP_2, A4D2P6
DFNB31_3, Q9P202 = target: T12, DFNB31_3, Q9P202
IL16_3, Q14005 = target: IL16_3, Q14005
GRIP2_4, Q9C0E4 = target: GRIP2_4, Q9C0E4
GIPC2, Q8TF65 = target: GIPC2, Q8TF65
NHERF4_2, Q86UT5 = target: NHERF4_2, Q86UT5
Sequence of NHERF4_2, Q86UT5 (Q86UT5 220-308): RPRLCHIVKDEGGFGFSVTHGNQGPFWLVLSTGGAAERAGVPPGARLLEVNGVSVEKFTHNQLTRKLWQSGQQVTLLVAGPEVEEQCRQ

Sequence of LNX1_1, Q8TBB1 (Q8TBB1 261-371): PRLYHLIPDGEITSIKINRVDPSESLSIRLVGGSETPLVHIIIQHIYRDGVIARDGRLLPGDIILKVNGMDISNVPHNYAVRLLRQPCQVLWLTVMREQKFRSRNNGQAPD
Sequence of IL16_3, Q14005 (Q14005 1107-1207): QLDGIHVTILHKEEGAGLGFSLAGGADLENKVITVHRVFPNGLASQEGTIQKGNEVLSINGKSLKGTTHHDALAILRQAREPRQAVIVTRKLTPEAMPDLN
Sequence of PARD3_3, Q8TEW0 (Q8TEW0 582-685): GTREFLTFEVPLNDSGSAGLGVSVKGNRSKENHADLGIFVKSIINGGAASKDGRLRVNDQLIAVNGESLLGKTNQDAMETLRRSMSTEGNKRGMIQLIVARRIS
Sequence of MAGI2_4, Q86UL8 (Q86UL8 772-865): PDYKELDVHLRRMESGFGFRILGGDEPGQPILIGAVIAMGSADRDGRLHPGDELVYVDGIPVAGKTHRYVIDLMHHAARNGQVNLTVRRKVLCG
Sequence of DLG4_2, P78352 (P78352 155-259): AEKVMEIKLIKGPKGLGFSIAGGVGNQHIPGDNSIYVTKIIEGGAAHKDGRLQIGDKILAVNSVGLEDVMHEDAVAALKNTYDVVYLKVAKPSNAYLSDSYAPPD
Sequence of NOS1, P29475 (P29475 9-101): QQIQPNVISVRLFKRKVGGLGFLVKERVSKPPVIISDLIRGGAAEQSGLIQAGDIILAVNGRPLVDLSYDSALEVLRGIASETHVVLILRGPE
Sequence of Inadl_8, Q8NI35 (Q8NI35 1425-1530): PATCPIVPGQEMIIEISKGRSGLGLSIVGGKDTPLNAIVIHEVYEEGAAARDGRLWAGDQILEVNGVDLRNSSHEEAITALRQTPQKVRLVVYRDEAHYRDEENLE
Sequence of GRIP2_4, Q9C0E4 (Q9C0E4 446-548): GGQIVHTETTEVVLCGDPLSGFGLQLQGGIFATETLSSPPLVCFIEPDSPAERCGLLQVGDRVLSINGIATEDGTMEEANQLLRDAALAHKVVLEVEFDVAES
Sequence of Inadl_10, Q8NI35 (Q8NI35 1673-1763): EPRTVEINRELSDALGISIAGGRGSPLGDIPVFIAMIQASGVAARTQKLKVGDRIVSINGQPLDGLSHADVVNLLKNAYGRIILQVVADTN
Sequence of GIPC2, Q8TF65 (Q8TF65 112-203): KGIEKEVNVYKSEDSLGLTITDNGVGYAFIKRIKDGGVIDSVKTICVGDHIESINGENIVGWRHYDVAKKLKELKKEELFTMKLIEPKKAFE
Sequence of GRID2IP_2, A4D2P6 (A4D2P6 272-370): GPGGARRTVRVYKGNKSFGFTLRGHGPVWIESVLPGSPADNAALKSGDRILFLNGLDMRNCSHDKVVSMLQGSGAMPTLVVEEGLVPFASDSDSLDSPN

Row | Binder | pKd (DLG4_2, P78352) | pKd (MAGI2_4, Q86UL8) | pKd (Inadl_10, Q8NI35) | pKd (LIN7B, Q9HAP6) | pKd (LNX1_1, Q8TBB1) | pKd (FRMPD1, Q5SYB0) | pKd (Inadl_8, Q8NI35) | pKd (PCLO, Q9Y6V0) | pKd (NOS1, P29475) | pKd (LIN7C, Q9NUP9) | pKd (PTPN13_1, Q12923) | pKd (GRIP1_5, Q9Y3R0) | pKd (ARHGEF11, O15085) | pKd (NHERF3_3, Q5T2W1) | pKd (PARD3_3, Q8TEW0) | pKd (ARHGAP21, Q5T5U3) | pKd (PARD3B_1, Q8TEW8) | pKd (MPP2, Q14168) | pKd (GRID2IP_2, A4D2P6) | pKd (DFNB31_3, Q9P202) | further results
1 | ADRDHASDQL [CTBP1, Q13363] | below the threshold | below the threshold | below the threshold | below the threshold | below the threshold | below the threshold | below the threshold | below the threshold | below the threshold | 3.96 | below the threshold | below the threshold | below the threshold | below the threshold | below the threshold | 4.08 | below the threshold | below the threshold | below the threshold | 3.97 | pKd (IL16_3, Q14005): below the threshold; pKd (GRIP2_4, Q9C0E4): below the threshold; pKd (GIPC2, Q8TF65): below the threshold; pKd (NHERF4_2, Q86UT5): below the threshold
2 | VGIERETDVL [EZH1, Q92800] | below the threshold | below the threshold | below the threshold | 3.53 | below the threshold | below the threshold | below the threshold | below the threshold | below the threshold | below the threshold | below the threshold | below the threshold | below the threshold | below the threshold | 3.67 | 3.92 | 3.65 | below the threshold | below the threshold | below the threshold | pKd (IL16_3, Q14005): below the threshold; pKd (GRIP2_4, Q9C0E4): below the threshold; pKd (GIPC2, Q8TF65): below the threshold; pKd (NHERF4_2, Q86UT5): below the threshold
3 | GSSSKEGTSV [RRBP1, Q9P2E9] | 4.27 | 4.32 | below the threshold | below the threshold | below the threshold | below the threshold | 3.91 | below the threshold | 3.72 | below the threshold | below the threshold | below the threshold | 3.83 | below the threshold | below the threshold | below the threshold | below the threshold | below the threshold | 3.76 | 3.96 | pKd (IL16_3, Q14005): below the threshold; pKd (GRIP2_4, Q9C0E4): below the threshold; pKd (GIPC2, Q8TF65): below the threshold; pKd (NHERF4_2, Q86UT5): below the threshold
4 | EGGKKRESEA [APPL1, Q9UKG1] | below the threshold | below the threshold | below the threshold | 3.75 | below the threshold | below the threshold | below the threshold | below the threshold | below the threshold | below the threshold | below the threshold | below the threshold | below the threshold | below the threshold | below the threshold | below the threshold | below the threshold | below the threshold | below the threshold | below the threshold | pKd (IL16_3, Q14005): below the threshold; pKd (GRIP2_4, Q9C0E4): below the threshold; pKd (GIPC2, Q8TF65): below the threshold; pKd (NHERF4_2, Q86UT5): below the threshold
